Assay: soluble on expression in E. coli; label from the status in PepcDB or PDB records
With “MRYLSNLLCLTLTFIVCFGAERDADEEAYVLMNLLKQSIDMDQTEALPGFVSRDFTYDTCKGIWNRDKYMEYLKVFSSRPDGGMQPMSTDWKVTNAHFNDNTLYFNIHNYNQHLAIYPDLEFEAKKIGKDERYILTRGKISKCGTLEKEY” the “soluble on expression in E. coli” value was “not soluble”.
In the case of “MKLKGKGIGKVVVEGEVIVSRKPLSFLGGVDPETGTITDPESDIKGESITGKILVFPKGKGSTVGSYILYALSKNGKGPKAIIVEEAEPIVTAGAIISGIPLITNVDISKLKTGMRVRINPQEGEVEILAEGNLLEHHHHHH”, the “soluble on expression in E. coli” value is reported as “not soluble”.
For “MTFSKSTTDKPSYTYEELSVKNKAYVWHPFTQMKDYLEEDPVIIERGEGRKLYDVNGNEYWDGVSSIWLNVHGHQVPELDEAIREQLNKIAHSTMLGLANVPSILLAEKIIEVVPEGLKKVFYSDSGSSAVEIAIKMAFQYWQHKGKPKKQRFVTLKEAYHGDTIGAVSVGAIDLFYQVYSSLLFEAIKMPYPYTYRSPYGNDKAEIVKKHLEEMEELLKDKHEEIAAIIVEPLMQGAGGMITMPKGYLRGLRNLCTKYNVLFITDEVATGFGRTGKMFACEHENVTPDILTAGKGLTGGYLPVAITVTTDEIYNAFLGSYEEQKTFFHGHSYTGNPLGCAVAIANLELYEKTNLIEEVARKTEYVATQLEELFACKHVGDIRQCGLMVGIELVKNKETKEAFEWTERVGVQVCKRSRELGMILRPLGNTIVFMPPLASTIDEIDEMLRILYKAISDITEGE”, the “soluble on expression in E. coli” value was “not soluble”.
For “MEAYDICKFWKLDMLEEFSQIVLKGKKKIILDIPSPSQQNKSDIVSLCPADSPETCNSSIPDWLVKVMRKENGYDPKLIIKRRVLCTTDLRKNQGCLSMHLSKLEKSDFLTEDETRFLDEDFLKAKRDGLKVFLVDPESDKHVVYLKKWNGNTVWKYVLSHGWNNVIDKKIFKVNDVIEIWSFRDGSGKLCFALSSPTRCGRSSSGHSS”, the “soluble on expression in E. coli” value was “soluble”.
In the case of “MGSDKIHHHHHHMKVRFLQISDLHFQFQNYDTIVMRDKLLDFIEVLRRESDFDFLLLTGDIAHKGDVYNEDVKEYLNGIIKSMGLSKNNVHLVPGNHDISRDMTRTLLIDSIMKSPNPSEMLDKLDQKATNILVEGQRKFFDFYEDFMGVKYPEEDLHFLYQSEKYNVLSINTCLLSDKKGEEGTLLTAQMKLYKAIRKMNKEKNKGKVLNIAIGHHTLGCIESSERESIKAHFDDYFIDLYLAGHVHDSSFNITANTNENPFLELVSGAIIKDEYATPEFISVDVNLDNGETEVTYYIWNTEYKYWSKNNQGGRRLQEGKLNYKINRLESLIEKEIEDNDDKIDEDEFKSFIIDFHEYRESYKTFTSNFDNQIGLDKKFYDMKSGETFKRKFDSYSEYFGVINHIMDSTSYVSADKKELIAETIVDKYLEFHNQYNNGDEIFVKIVNEIYLECHSVLPYSKALTKKYIKILTCWCIYECEIFNDNKRSVKND”, the “soluble on expression in E. coli” value is reported as “not soluble”.
For “MNDSIDDDFPPEPRGRCYTWPMQQYIYQESSATIPHHHLNQHNNPYHPMHPHHQLPHMQQLPQPLLNLNMTTLTSSGSSVASSIGGGAQCSPCASGSSTAATNSSQQQQTVGQMLAASVPCSSSGMTLGMSLNLSQGGGPMPAKKKRCRKKPTDQLAQKKPNPWGEESYSDIIAKALESAPDGRLKLNEIYQWFSDNIPYFGERSSPEEAAGWKNSIRHNLSLHSRFMRIQNEGAGKSSWWVINPDAKPGRNPRRTRERSNTIETTTKAQLEKSRRGAKKRIKERALMGSLHSTLNGNSIAGSIQTISHDLYDDDSMQGAFDNVPSSFRPRTQSNLSIPGSSSRVSPAIGSDIYDDLEFPSWVGESVPAIPSDIVDRTDQMRIDATTHIGGVQIKQESKPIKTEPIAPPPSYHELNSVRGSCAQNPLLRNPIVPSTNFKPMPLPGAYGNYQNGGITPINWLSTSNSSPLPGIQSCGIVAAQHTVASSSALPIDLENLTLPDQPLMDTMDVDALIRHELSQAGGQHIHFDL”, the “soluble on expression in E. coli” value was “not soluble”.
In the case of “GSDDLVGVSVRPKVPLRTMSYKLAIDMSHFIKEKGGLEGIYYSARRHRILDIYLEKEEGIIPDWQDYTSGPGIRYPKTFGWLWKLVPVNVSDEAQEDEEHYLMHPAQTSQWDDPWGEVLAWKFDPTLAYTYEAYVRYPEEFGS”, the “soluble on expression in E. coli” value is reported as “soluble”.
In the case of “MERNYEESALFEHQFWLKVLTDHSQFLLDALAPKEKEDIKKATYFVETFTNLLNKVRNVNLIAFSKEAERAAKEIRTFKLSIIQKQLEGKITIHFTPTFINHMVNEVEEYITVLEFLNKGEVPPVFHELHYHLVWLTDAAGHAGSISGGLDLVEKRLKEKSEEFTKHFEQFYLKAVEMTGYLRTELHHFPALKKFTKDVSLELKLFSHFLHEVEELELSNEILSALSARMADHMAREECYYLLKLAQSSGLEMPKCNPL”, the “soluble on expression in E. coli” value is reported as “not soluble”.
For “GMSEPEVPFKVVAQFPYKSDYEDDLNFEKDQEIIVTSVEDAEWYFGEYQDSNGDVIEGIFPKSFVAVQG”, the “soluble on expression in E. coli” value was “soluble”.
For “LRPVLPTQSAHDPPAVHLSNGPGQEPIAVMTFDLTKITKTSSSFEVRTWDPEGVIFYGDTNPKDDWFMLGLRDGRPEIQLHNHWAQLTVGAGPRLDDGRWHQVEVKMEGDSVLLEVDGEEVLRLRQVSGPLTSKRHPIMRIALGGLLFPASNLRLPLVPALDGCLRRDSWLDKQAEISASAPTSLRSCDVESNPGIFLPPGTQAE”, the “soluble on expression in E. coli” value was “soluble”.
With “GPGSMLHRSLACFAVPADRKAFMELVKTLRYRTEAPISDCSAALKETDGDMDAAMQVLRKRGAARAMKKGDRVTEHGFVVSCVGSTPQSGAAIVTICSETDFAARNEHFQRVCMQVRDQLCKLMDATNGAVLANPEEAVKHLSDVMAEELRVAIAVLGENMRVRSIAPLVPAPHVSERLLIGSYTHGSLNVDNVGRIVGLVALSQVRENEVVPKDVLTSVGRHFVATSGAEGNYAHQNFFGSETETVGKWLKQRGLKFSSSLVQEFGKEPVVHTAPEPHR” the “soluble on expression in E. coli” value was “not soluble”.
For “MGSDKIHHHHHHMNIETLMIKNPPILSKEDRLGSAFKKINEGGIGRIIVANEKIEGLLTTRDLLSTVESYCKDSCSQGDLYHISTTPIIDYMTPNPVTVYNTSDEFTAINIMVTRNFGSLPVVDINDKPVGIVTEREFLLLYKDLDEIFPVKVFMSTKVQTIYKEVRLDQAVKLMLRRGFRRLPVIDDDNKVVGIVTVVNAIKQLAKAVDKLDPDYFYGKVVKDVMVTNLVTIDELASVNRAAAEMIVKRIGSLLILNKDNTIRGIITERDLLIALHHILVMEKFKEKL”, the “soluble on expression in E. coli” value was “not soluble”.
With “MTIKSDKWIRRMAQEHGMIEPFVERQVRGADDSRVISYGVSSYGYDVRCAAEFKVFTNIHSAVVDPKNFDEKSFVDINSDVCIIPPNSFALARTVEYFRIPRDVLTICLGKSTYARCGIIVNVTPLEPEWEGHVTLEFSNTTNLPAKIYANEGVAQMLFLQSDEACEVSYKDRGGKYQGQR” the “soluble on expression in E. coli” value was “soluble”.
With “MAHHHHHHMLGEGLDIGFYAEDAYAAYVTDLATSLHLVPHCRNARGATLEVVFTGPFHDLSAYEEAVKQGKLVPYAELPWPVAEERGVQGVSGATLSVTLHGWIEKLNAARKVQLMEPLFPAAELGATIAEICVMGDAGNSAPCAFASTSPPCVAESAGTSNEKGTHPSLKPSRFRILGSLDFLLHLSSRDWLMGESSVPADSPSADGRDEANPNFAVGADDATRAAHACRDALEQRDDVALARNAVNTVIKMAQMAEEHPGEVGSVFVDAKERVEYIQFSAQ” the “soluble on expression in E. coli” value was “not soluble”.
In the case of “MRSQRIVHIVSCHAEGEVGDVIVGGVAAPPGATLWEQSRWIARDQDLRNFVLNEPRGGVFRHANLLVPAKDPRAQMGWIIMEPADTPPMSGSNSLCVATVLLDSGILPMREPLTRLLLEAPGGLIEARAECRDGKAERVEIRNVPSFADRLDAWIEVEGLGSLQVDTAYGGDSFVIADARRLGFALRADEAAELVATGLKITHAANEQLGFRHPTNPDWDHLSFCQLAAPPERRDGVLGANNAVVIRPGKIDRSPCGTGCSARMAVLQAKGQLRVGERFVGRSIIGSEFHCHIESLTELGGRPAILPCLSGRAWITGIHQYLLDPDDPWPQGYRLSDTWPGGHC”, the “soluble on expression in E. coli” value is reported as “not soluble”.
In the case of “LSNFQGKVMMTVNATDVTDVITIPTAAGKNLCIVRAMDVGYMCDDTITYECPVLSAGNDPEDIDCWCTKSAVYVRYGRCT”, the “soluble on expression in E. coli” value is reported as “soluble”.
With “MRKIVLPGDLLSTNPRAAGYGTYVEGGKVYAKIIGLFDQTETHVRVIPLKGRYTPSVGDVVIGIIREVAANGWAVDIYSPYQAFLPVSENPEMKPNKKPNEVLDIGDAIIAKVLNIDPKMKVTLTMKDRICRPIRFGRIVAINPARVPRVIGKKGSMIKLLKSELDVQIVVGQNGLIWVNGDRRKVSIAEEAIYLIEQEAHTEGLTDRVAEFIKRRKADVGIQHHHHHH” the “soluble on expression in E. coli” value was “soluble”.

Reference: the DeepSol protein solubility set
